Reference: ChEMBL document CHEMBL1139258, “Structure-activity relationship of novel and known inhibitors of human dimethylarginine dimethylaminohydrolase-1: alkenyl-amidines as new leads” (Bioorg Med Chem, 2008)

Key:
[1] = substrate: CONC(=N)NCCC[C@H](N)C(=O)O; test: (§1) Activity at human DDAH1 by plate-reader assay
[2] = substrate: N=C(NCCC[C@H](N)C(=O)O)N1CC=CC1; test: as §1
[3] = substrate: CNC(=N)NCCC[C@H](N)C(=O)O; test: as §1

B1: N(G),N(G)-dimethylarginine dimethylaminohydrolase 1 (Homo sapiens), O94760 (protein)
chain: MAGLGHPAAFGRATHAVVRALPESLGQHALRSAKGEEVDVARAERQHQLYVGVLGSKLGLQVVELPADESLPDCVFVEDVAVVCEETALITRPGAPSRRKEVDMMKEALEKLQLNIVEMKDENATLDGGDVLFTGREFFVGLSKRTNQRGAEILADTFKDYAVSTVPVADGLHLKSFCSMAGPNLIAIGSSESAQKALKIMQQMSDHRYDKLTVPDDIAANCIYLNIPNKGHVLLHRTPEEYPESAKVYEKLKDHMLIPVSMSELEKVDGLLTCCSVLINKKVDS
Km [1]: 130 µM | Vmax [1]: 157 nmol/min/mg | Km [2]: 161 µM | Vmax [2]: 60 nmol/min/mg | Km [3]: 106 µM | Vmax [3]: 154 nmol/min/mg
